Assay: soluble on expression in E. coli; label from the status in PepcDB or PDB records

Sequence	soluble on expression in E. coli
MAHHHHHHMNSKASPAALPMRQGRGFQVIVHGVLEGAECVEVGSVFARTQLFFGPDWAFLESNSGYGEDAAADDDDLVEPTYSNNAEVVTQLCDCAKGPVPYFSFTAPFEFALTSTNPFGWPQLVITLHTVEGAGGSSGKGADGNDTQLLGSGESIIGYGRCFIPMKSGYHTKKVPMMQLESTTSKQQLISFLTREKPVLRDLSFLCTGDDQVMLHARPLDGYVKLNFSVMINGMESSGFEV	soluble
GSMLHGLKQRLEALHHPGELEGSPQNLHQLLGVSIEQSVPQAQTMLVERHLASLTGDEARLLAALSDGSAFALLTLYSGSRFSRGEVLYRYSNAGRAAGIQCNDFIALYLNHLFAQGLVIASDFTESLRTDYELCEGDSDFRKAQAELQIHLPKLSIRRETLRISPLGRQLWTLMTTPADIEEGH	soluble
MFKIKTIESLSDLTQLKKAYFDSSIVPLDGMWHFGFAPMAKHFGFYVNKNLVGFCCVNDDGYLLQYYLQPEFQLCSQELFTLISQQNSSVIGEVKGAFVSTAELNYQALCLDNSATFKVNSLMYQHNTKLADRNLEMIDMQIAGTEQLTAFVTFAAANIGAPEQWLTQYYGNLIERKELFGYWHKGKLLAAGECRLFDQYQTEYADLGMIVAQSNRGQGIAKKVLTFLTKHAATQGLTSICSTESNNVAAQKAIAHAGFTSAHRIVQFEFKHA	soluble
MGSDKIHHHHHHMKKAVLIVNPSSGGEKAKEFETLAEEKLKQLFDEVVVKQTEKGGDAEQFAREAAESHFDSVFVMGGDGTVNEGISGLAEQAYRPKFGFFPLGTVNDLARALNLPMDPEEAIQQLDLEKTSALDVGKINDDYFMNVVAIGTIPESINDVDVEQKTKLGKLAYFISGAKHLANAQTYPFHLSLDQKEQTIESSTVLVGLTNSIGGFETLLPEAQVDDGKLHLVYLKDQSLWDAVKAVPDLLKGVDQSTDNLVYLTFKEGTISLENQEELTTNVDGDEGAALPITLKILPKHLTVYCGEEQTK	not soluble
MDMQHDDLNYEYLYGTTYPLMKNAGKAVADAVMKNYPDARTVCVVAGTGNNGGDAIVAGSILSAKYDVRVLIVTEVRSELARRALSEYGGRVIGLDGMEECMKCDVIIDGIFGVGISGDPKDPYRSVIENINRSCSHVVSVDIPSGLGTRYAVKPEITVTFTMEKYGMNQDNSGKIIVADIGIPPDVRKYAGPGDLLYYPKPDPSSHKGMNGTLAIVGGWEFHGSSVIAALAAERIGLDLVRVFVSPRNYQIVSGYDPGIIVRQVEKLDEKKLSEIYGNSAILLGPGMGKGDDAMEAARKIVSDSRVPMVVDADALDAVGAYSGSFAGRKIIITPHKGEFRRISGFEPTEENAISYARKKGLIVVLKGQVDVITNGEEVHYAKGGNARMTMGGTGDLLAGIISAFLARSVDPMRACLMGTYLNKALGEAAYSKHGYWYTVTDMISEIPGVMGKYIKI	not soluble
GPGSMERLLPSMQQRFAELAHTGVGESSLTVEALFQRYQRVLKVGEGTFGEVFVLYDTVAHTYITMKRMHTLLSLRRRSLGIHRCTFREVELLAALQHPNIVQVLDYHILSDGSLVMLMPVIAHDLTSLLRRWPSTPQSSDHGTASTAASTRPRMPLHVVKCIFRQIIAGVAYLHKHKVVHRDLKPSNVMVDHTGVVKLIDFGWSRFCAAAGAMTGPPCVTAFRPPEVLMGAHNHYTFSLDIWCCGCILFEMLTGGTPFAKSRNEAECLANIVDWLGSPPSSSEVYYRRAARCPFPLAPGRPDTFAQRCSNYGIKSAEAMFLRRMLCLEPGERATAEALLRDPWFTTAPTMCVPRAVPLPAHNMFRLVEVKRKELEH	not soluble
MGSDKIHHHHHHMDEIARFLRSYPPFDRLPEQVVHQIAGELQIEFVRAGQTILTKGGEPSSFLYIVCKGSVDLLRSEDQVVDTLGPGEAFGHPSLIRGQPPLVTVRAHTDTLLYLLPGAIFHRLRAEQPQFAAFFAASVIERLGYALQSRQSESNPALFQTRLRDLVARPPVSISPEATVGDAARLMRDERISSLIVEHTPIGIITDRDLRNRVLAEGLPDTTPVRQVMSAPATTIAADALAFEGLLLMLERGIHHLPLVEGDRVVGVVTHTDILRRQSNSPLFLPRLLQRATSLADLRRYTDQVADAVFTLTAAGARVSDIGRVVAVAHDALLQRLIHDAEAQLGPPPVPYAWLVLGSEGRYEQTLRTDQDNALVYDDSASADDVRYFEQLATLVVDWLVECGFPRCPGNIMATNPEWRQSLATWQRYFHRWIEIPDEESLLRIAIFFDYRQVYGQLPAEPVLRTITQHAAEHRIFMARLARAALRQPAPLTFFRQVALERRGDPRDL	not soluble
MGSDKIHHHHHHMKYREILEAAVRAPSGENCQPWRFVMEGDVIRIFNIPDQDTSLFNLHQRASYVAHGALLENLSIAAPAFGYAPDISLFPDSHVPNLVAAVRMTEGPSFDDSLYPYIPKRCTNRKRYNGGALSAAESQTLLSVAERVPGGKVALTGSVQDKAEVAEVNALNDRLVFENEHLHAFLFEHVRWSDAEARERGDGLDIKTLELAPPDSLAFPLLKSWPLVDFLKNFGVPRIIAGSARKLALSAAAIGVVSVPGKGDKDCIAAGRLIERVWLEATKLGLSFQLMTGITLLMRRVLDGETENISSQHGELIKKAYGTLANRFGVEDGSLFIMFRVGRCGPPSVYSMRYPIDKVIDAP	not soluble
MISHSELRKLFYSADAVCFDVDSTVIREEGIDELAKICGVEDAVSEMTRRAMGGAVPFKAALTERLALIQPSREQVQRLIAEQPPHLTPGIRELVSRLQERNVQVFLISGGFRSIVEHVASKLNIPATNVFANRLKFYFNGEYAGFDETQPTAESGGKGKVIKLLKEKFHFKKIIMIGDGATDMEACPPADAFIGFGGNVIRQQVKDNAKWYITDFVELLGELEE	soluble
MSLEAPVYKEIFGAVKIYELQKVIKMDTETEDVPMFTVQNLPREDIYKTIGEMAIIVPMKNEKLHLVDGVLKAIPHKSPIIIVSNSKRKGPNRFKQEVDLVKHFCNLTHSKVIMIHQRDPGLAEAFRETGYEDILDEKGLVRSGKGEGMLIGIMLAKAIGAKYVGFVDADNYIPGAVNEYVKDYAAGFLMSESEYAMVRLHWRHKPKVSRGTLYFKKWGRVSEITNRYLNQLISEKTAFETTIMVTGNAGEHAMTMKLAEILPFSTGYSIEPYEIVYLLERFGSWENVEEFQDVFDQGIEIFQIETLNPHFHEDKGQEHVKEMVLLSLTTIYHSKLASERLKRQILEDLRMHGIIKEDEEPPKPRVMRPIKDIDIKKWMKTLESNQETLLRFDLEGHHHHHH	soluble
MAEHDFETISSETLHTGAIFALRRDQVRMPGGGIVTREVVEHFGAVAIVAMDDNGNIPMVYQYRHTYGRRLWELPAGLLDVAGEPPHLTAARELREEVGLQASTWQVLVDLDTAPGFSDESVRVYLATGLREVGRPEAHHEEADMTMGWYPIAEAARRVLRGEIVNSIAIAGVLAVHAVTTGFAQPRPLDTEWIDRPTAFAARRAER	soluble
MSLDREGLNTHLKSGATTVCRAWEVRRTDGVTLGFTDHDRDLSFDGMTFRAGTGLSARSLMQSTGLAVDNSEALGALSSDAVREADIESGRYDGAEVRAWLVNWADTTERALQFRGSLGEIRRAGGAFEAELRGLTEALNQPLGRVFQKPCSAVLGDAACKFDLSTAGYAVEIDVETLRDGQLFAWASLDGFAPGWFTGGRLTVLGGAGAGLWAPIRSDSLNARREITLWQPIRADIQPGDLVRLSAGCDKRQSTCRLKFDNLVNYQGFPDIPGEDWMVAVPKRTGQNTGGSRREGHHHHHH	soluble
MKAIVTLNTTGAQLSVPASSRNLLETLEYHQVPVEYQCRSGYCGSCRMRLLKGEVCYLQQPLAFIQAGEILPCCCQPKGNIEIEF	not soluble
MGSDKIHHHHHHMILKHRRPNIYGLMNKEGNKEEVEMIINELLNRDYKITFLPSGSSAVFLSMWIAKIYSNEISIPDMGGWQGFLKFPKLLNLKNNMIETNLGIIDLEKLDESLKENSSLILTSLAGYLAPQPLKEIKKLCEEREVLFIEDISGKIGGDCGYGDIVVCSTGTPKILNCEYGGFLGISKEIEEKLGNALNDIKILSKTYKTINYFGLLKEELLNAKKTYKKYVEASKIIKDEIENAYFREFEGISVFIECDNPKNISKKINSLIKLDNRKSITTICPNYDRILKNGIVFETKKIDISELNREVINEIIIALSSIL	not soluble

Source: the DeepSol protein solubility set
